Data taken from patent US9296994B2, “Archease as RNA ligaes complex member” (IMBA—INSTITUT FÜR MOLEKULARE BIOTECHNOLOGIE GMBH, priority 2012, dated 2016).

Tests used:
[1] = target: T1, FLAG-RTCB, the catalytic subunit of the human tRNA ligase (Homo sapiens, UniProt Q9Y3I0); assay: Assay to monitor Archease function and inhibition of RNA ligase activity (linear intron substrate); assay type: biochemical; conditions: FLAG-RTCB from HEK293 cells with His-tagged Archease, GTP or GMPcPP at 0.5 mM
T1 construct: FLAG; made in house; host or cells: HEK293 cells (FLAG-RTCB)
T1 sequence (Q9Y3I0 whole entry): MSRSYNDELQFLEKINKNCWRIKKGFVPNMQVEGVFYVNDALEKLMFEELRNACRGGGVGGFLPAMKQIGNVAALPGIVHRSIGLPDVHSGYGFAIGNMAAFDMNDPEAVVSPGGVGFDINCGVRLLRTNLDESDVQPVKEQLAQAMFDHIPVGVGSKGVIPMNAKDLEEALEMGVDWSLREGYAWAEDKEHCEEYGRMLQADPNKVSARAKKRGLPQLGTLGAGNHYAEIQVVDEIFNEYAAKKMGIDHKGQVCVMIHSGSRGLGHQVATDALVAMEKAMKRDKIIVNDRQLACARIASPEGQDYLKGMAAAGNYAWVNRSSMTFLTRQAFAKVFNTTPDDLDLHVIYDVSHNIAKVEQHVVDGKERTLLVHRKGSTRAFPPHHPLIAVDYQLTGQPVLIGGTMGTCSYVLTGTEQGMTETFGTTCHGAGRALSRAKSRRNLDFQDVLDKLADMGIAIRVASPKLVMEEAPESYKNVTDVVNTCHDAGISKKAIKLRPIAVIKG
T1 sequence (Q92499 whole entry partner): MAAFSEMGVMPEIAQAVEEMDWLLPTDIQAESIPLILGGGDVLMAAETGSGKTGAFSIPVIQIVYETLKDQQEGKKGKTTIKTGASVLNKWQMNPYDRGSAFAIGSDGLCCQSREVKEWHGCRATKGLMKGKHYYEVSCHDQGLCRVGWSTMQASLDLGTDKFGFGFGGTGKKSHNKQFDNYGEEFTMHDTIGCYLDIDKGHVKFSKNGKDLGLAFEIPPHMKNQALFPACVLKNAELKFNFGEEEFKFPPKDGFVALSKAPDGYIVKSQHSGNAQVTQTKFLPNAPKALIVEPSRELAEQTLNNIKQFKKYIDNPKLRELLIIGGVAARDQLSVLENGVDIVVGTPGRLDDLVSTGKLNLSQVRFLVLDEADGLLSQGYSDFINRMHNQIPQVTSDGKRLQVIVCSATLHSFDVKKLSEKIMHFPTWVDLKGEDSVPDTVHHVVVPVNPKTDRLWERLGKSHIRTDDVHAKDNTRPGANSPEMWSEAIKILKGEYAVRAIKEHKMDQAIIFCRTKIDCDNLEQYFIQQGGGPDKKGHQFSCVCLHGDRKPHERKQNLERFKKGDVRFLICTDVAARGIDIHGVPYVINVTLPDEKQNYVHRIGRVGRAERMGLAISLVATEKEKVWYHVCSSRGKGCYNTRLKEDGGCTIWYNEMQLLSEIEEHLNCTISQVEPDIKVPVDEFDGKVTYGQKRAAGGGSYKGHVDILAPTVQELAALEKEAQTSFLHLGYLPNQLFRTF
T1 sequence (Q52LJ0 whole entry partner): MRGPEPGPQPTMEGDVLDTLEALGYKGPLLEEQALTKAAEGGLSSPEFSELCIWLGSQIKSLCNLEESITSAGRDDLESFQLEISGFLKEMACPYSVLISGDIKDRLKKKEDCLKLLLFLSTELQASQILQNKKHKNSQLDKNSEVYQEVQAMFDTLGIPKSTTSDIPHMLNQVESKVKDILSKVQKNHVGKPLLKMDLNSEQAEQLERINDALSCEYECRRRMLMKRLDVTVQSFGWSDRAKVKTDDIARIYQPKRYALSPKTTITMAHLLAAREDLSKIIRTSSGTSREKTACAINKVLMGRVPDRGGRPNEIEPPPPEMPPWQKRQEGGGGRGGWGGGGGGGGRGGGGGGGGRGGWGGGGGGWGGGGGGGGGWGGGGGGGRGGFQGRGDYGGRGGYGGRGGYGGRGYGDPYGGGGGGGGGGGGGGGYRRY
T1 sequence (Q9BVC5 whole entry partner): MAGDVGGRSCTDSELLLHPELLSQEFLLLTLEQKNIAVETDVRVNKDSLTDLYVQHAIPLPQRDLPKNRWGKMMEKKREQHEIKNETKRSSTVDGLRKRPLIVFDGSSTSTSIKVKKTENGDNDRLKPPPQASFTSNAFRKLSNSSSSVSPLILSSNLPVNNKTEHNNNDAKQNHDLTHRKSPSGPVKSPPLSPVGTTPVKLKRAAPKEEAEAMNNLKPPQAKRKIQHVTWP
T1 sequence (Q9Y224 whole entry partner): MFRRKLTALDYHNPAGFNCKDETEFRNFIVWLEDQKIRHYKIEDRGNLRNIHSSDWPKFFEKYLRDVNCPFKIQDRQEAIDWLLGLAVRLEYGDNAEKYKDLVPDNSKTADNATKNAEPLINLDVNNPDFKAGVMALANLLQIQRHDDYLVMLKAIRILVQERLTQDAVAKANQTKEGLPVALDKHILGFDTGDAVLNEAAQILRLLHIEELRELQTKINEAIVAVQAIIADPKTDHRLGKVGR
Description: FIG. 14: Assay to monitor inhibition of RNA ligase activity. […] The linear substrate (second from bottom to top) is converted into a circular product (bottom) or a concatemer (top), which is further circularized (third from bottom to top). Ligation only took place with wild-type Archease and GTP.
The RNA ligation activity of FLAG-RTCB, the catalytic subunit of the human tRNA ligase, was determined in the presence of wildtype or mutant (D39A) Archease with the addition of GTP or non-hydrolysable GMPcPP (5′-guanylylmethylenebisphosphonate). […] The reaction was carried out with FLAG-RTCB purified from HEK293 cells and hexahistidine tagged wild-type or mutant Archease. Furthermore, GTP or GMPcPP were used at 0.5 mM concentration. A linear intron derived from a radioactively labelled pre-tRNA that was transcribed with T7 polymerase and cleaved with recombinant tRNA endonuclease from Methanocaldococcus jannaschii served as substrate. Cleavage products were resolved on preparative denaturing polyacrylamide gels and the linear intron was eluted overnight and recovered by precipitation. With reference to FIG. 14, FLAG-RTCB and wild-type Archease in the presence of GTP are able to convert the linear substrate (second from bottom to top) into a circular product (bottom) or a concatemer (top), which is further circularized (third from bottom to top). This type of assay can be used to validate candidate inhibitors of the Archease or even the ligase or to screen compound libraries in order to find inhibitory molecules.

[2] = tested on: cleaved Xbp1 RNA minimal substrate; assay: In vitro Xbp1 splicing (exon ligation) assay with Ire1 pre-cleaved Xbp1 RNA; assay type: biochemical, human; conditions: for Stimulation of ligation of Xbp1 RNA minimal substrates by affinity purified human tRNA ligase complex: addition of recombinant protein
Text: FIG. 8: The human tRNA ligase HSPC117 and Archease are both required for non-conventional splicing of Xbp1 mRNA during the Unfolded Protein Response (UPR). A) Experimental outline for in vitro splicing assay. B) An internally labeled fragment of Xbp1 mRNA was pre-cleaved with recombinant Ire1 endonuclease and supplemented with buffer or HeLa whole-cell extract (wce) for the indicated time points to allow ligation of exon halves. Formation of splice product is specific to the presence of both Ire1 and cell extract. Lanes marked “unspliced” and “spliced” contain control transcripts to mark the size of the splice product. C) HSPC117 and Archease both contribute to non-conventional splicing. 3′ end labeled Xbp1 was pre-cleaved with Ire1 and supplemented with whole-cell extract from HeLa cells treated with siRNAs as indicated above the lanes. Cell extracts were harvested 72 hrs post transfection. D) Ligase activity for non-conventional splicing resides in HSPC117 but not in Archease. In vitro splicing assay using 3′end labeled Xbp1 carried out using whole cell extract (input) or FLAG-IP from HEK293 cells stably expressing FLAG-HSPC117, FLAG-Archease or FLAG-DDX1. Ligation activity is only found in IPs of integral members of the tRNA ligase complex. E) Non-conventional splicing activity is stimulated by addition of Archease. Splicing assay using 3′ end labeled Xbp1 carried out as above with addition of buffer or recombinant protein as indicated above the lanes. […] Bovine Serum Albumine (BSA) was included as control.
For the splicing assay RNA was prepared by T7-transcrition from PCR product containing spliced and unspliced form of human Xbp1. Substrates were labelled internally using a-GTP and at the 3′end using ligation to pCp. Substrate was pre-cleaved with recombinant Ire1 for 5 mins in tRNA ligation buffer with subsequent addition of protein extract of FLAG-IP eluate to total volume of 5 μl. Samples were treated with proteinase K and phenol-chloroform extracted prior to loading on 10% PAGE gel.
Perturbation of normal ER function causes mis- or unfolded proteins to accumulate leading to activation of the unfolded protein response (UPR). One of three UPR pathway inducers in mammals, the ER transmembrane protein Ire1, cleaves the Xbp1 mRNA specifically to remove a 26 nt intron (FIG. 8A). […] None of the additional four components of the tRNA ligase complex were required for ligation in agreement with previous findings (WO 2012/28606). […] The reduced ligation activity seen in Archease-depleted extracts raised the question whether Archease is an RNA ligase or rather acts to stimulate the ligation activity of other ligases. To address this question stable cell lines expressing FLAG-tagged versions of HSPC117, Archease, and DDX1 (a DEAD-box helicase component of the human tRNA ligase complex) were generated and the Xbp1 ligation assay using FLAG-IPs was performed.
To further address the stimulatory activity of Archease both HSPC117 and Archease were depleted by RNAi and then an Archease rescue-construct containing either WT or MUT Archease was introduced.

[3] = tested on: pre-cleaved tRNA substrates; assay: RNA ligase activity assay of affinity-purified FLAG-tagged Archease on pre-cleaved tRNA substrates; assay type: biochemical, human; conditions: FLAG immuno-precipitate
Description: A) Coomassie Blue stained preparations of FLAG-tagged Archease and HSPC117 affinity purified at 150 mM NaCl. B) RNA ligase activity assay of FLAG-HSPC117 and FLAG-Archease using pre-cleaved tRNA substrates. Extracts of HEK 293 cells were used as a negative control. * Indicates unspecific products.
Stable cell lines expressing a FLAG-tagged version of Archease and HSPC117 were generated to perform immuno-precipitations. Fluted FLAG-Archease was assayed for tRNA ligation in parallel with FLAG-HSPC117, which contains the entire tRNA ligase complex.

[4] = target: T2, human tRNA ligase complex (Homo sapiens, UniProt Q9Y3I0); assay: RNA ligation assay with affinity-purified tRNA ligase complex and added recombinant Archease; assay type: biochemical; conditions: pre-cleaved tRNA substrates or linear intron; time course
T2 construct: FLAG; made in house; Archease expressed in E. coli
T2 sequence (Q9Y3I0 whole entry): as the sequence (Q9Y3I0 whole entry) above
T2 sequence (Q92499 whole entry partner): as the sequence (Q92499 whole entry partner) above
T2 sequence (Q52LJ0 whole entry partner): as the sequence (Q52LJ0 whole entry partner) above
T2 sequence (Q9BVC5 whole entry partner): as the sequence (Q9BVC5 whole entry partner) above
T2 sequence (Q9Y224 whole entry partner): as the sequence (Q9Y224 whole entry partner) above
Description: FIG. 3: Archease boosts RNA ligation by the human tRNA ligase complex. A) Time-course ligation assay with affinity-purified tRNA ligase complex and pre-cleaved tRNA substrates in absence or presence of recombinant Archease. B) Time course ligation assay with affinity purified tRNA ligase complex and isolated linear introns (2.5 μM) in absence or presence of recombinant Archease (8.5 μM) expressed in E. coli. The signals corresponding to the concatemerized intron were quantified and plotted as fraction of the total signal detectable in the respective lane.
FIG. 6: The point mutations D39A and K144A abolish the function of Archease in RNA ligation. A) Time-course of ligation activity of FLAG-HSPC117 complexes upon addition of recombinant wild-type or mutant Archease (15 μM). B) SDS-PAGE analysis of purified recombinant wild-type and mutant Archease.
Addition of Archaease influences ligase activity of affinity purified human tRNA ligase complexes.
To study the function of Archease the available NMR structure from the euryarchaeote Methanothermobacter thermautotrophicus (Yee et al., 2002) (36% identical to human protein) was used and aspartic acid (D) 39 and lysine (K) 144, both extremely conserved residues, were replaced by alanines (D39A; K144A) (FIG. 5). Wild-type and mutant versions of Archease were over-expressed in […] and tRNA ligase activity was measured. […] FIG. 6B confirms equal concentrations of recombinant proteins added to the reactions.

Row | Molecule | RNA ligase activity of affinity purified tRNA ligase complex upon addition of recombinant Archease [4] | Stimulation of ligation of Xbp1 RNA minimal substrates by affinity purified human tRNA ligase complex [2] | further results
1 | Nc1nc2c(ncn2[C@@H]2O[C@H](COP(=O)(O)CP(=O)(O)OP(=O)(O)O)[C@@H](O)[C@H]2O)c(=O)[nH]1 [GMPcPP, 5′-guanylylmethylenebisphosphonate] | – | – | RNA ligation activity of FLAG-RTCB [1]: strongly inhibits the ligation reaction; RNA ligation activity of FLAG-RTCB ([1]; listed as GMPCPP): inhibits the reaction
2 | FLAG-tagged Archease: FLAG-tagged version of Archease affinity purified from stable cell lines (protein, left off: small tags and cut ends) MAQEEEDVRDYNLTEEQKAIKAKYPPVNRKYEYLDHTADVQLHAWGDTLEEAFEQCAMAMFGYMTDTGTVEPLQTVEVETQGDDLQSLLFHFLDEWLYKFSADEFFIPREVKVLSIDQRNFKLRSIGWGEEFSLSKHPQGTEVKAITYSAMQVYNEENPEVFVIIDI | – | – | Xbp1 ligation activity of FLAG-IP ([2]; FLAG-IP from stable HEK293 cells): no ligation was detected; RNA ligase activity of the affinity-purified protein itself [3]: RNA ligase activity was only detectable in reactions containing affinity-purified RNA ligase complex but not FLAG-tagged Archease
3 | D39A: Archease point mutant, aspartic acid 39 replaced by alanine; inactive (protein, listed as Homo sapiens) MAQEEEDVRDYNLTEEQKAIKAKYPPVNRKYEYLDHTAAVQLHAWGDTLEEAFEQCAMAMFGYMTDTGTVEPLQTVEVETQGDDLQSLLFHFLDEWLYKFSADEFFIPREVKVLSIDQRNFKLRSIGWGEEFSLSKHPQGTEVKAITYSAMQVYNEENPEVFVIIDI | neither of the mutant versions of Archease stimulated the low levels of ligation | inactive | –
4 | K144A: Archease point mutant, lysine 144 replaced by alanine; inactive (protein, listed as Homo sapiens) MAQEEEDVRDYNLTEEQKAIKAKYPPVNRKYEYLDHTADVQLHAWGDTLEEAFEQCAMAMFGYMTDTGTVEPLQTVEVETQGDDLQSLLFHFLDEWLYKFSADEFFIPREVKVLSIDQRNFKLRSIGWGEEFSLSKHPQGTEVAAITYSAMQVYNEENPEVFVIIDI | neither of the mutant versions of Archease stimulated the low levels of ligation | inactive | –
